Results as given in the supplement of paper PMC10567573.

B1: KCNAB2 (parent)
chain: IPPYSRASLKGYQWLKDKILSEEG

Variants of: B1
Assay: protein stability index of a GFP-peptide fusion (GPS, HEK-293T) (PSI 1-6); higher = more stable
Settings: c terminus: a fixed tail appended
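Note: lentivirally expressed fusions sorted by FACS into six bins by GFP to DsRed ratio, PSI derived from sequencing read proportions per bin multiplied by bin number.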

Protein stability index of substitutions, site by site:
K16: I 2.49 | Y 1.84 | L 1.02 | S 2.38 | C 3.16 | V 2.08 | M 1.71 | N 3.29 | G 3.26 | E 2.19 | H 1.53 | T 2.74 | W 2.29 | D 3.77 | A 1.82 | P 3.39 | Q 2.31 | R 3.2
G11: Y 2.91
Y12: A 3.34 | F 2.84 | T 3.81 | Q 3.18 | R 3.44 | N 3.13 | D 3.97 | H 3.62 | S 4.02 | K 4.35 | I 2.45 | V 2.71 | L 2.51 | G 3.5 | C 3.04 | P 3.17 | E 3.87 | W 1.32
W14: V 3.6 | K 3.65 | R 3.73 | A 3.76 | G 4.07 | M 3.66 | T 3.3 | S 2.95 | F 4.47 | H 3.57 | P 3.97 | L 3.57 | Y 3.32 | E 3.59 | Q 3.04 | D 3.73 | N 3.78 | I 3.45
Q13: P 2.03 | Y 1.53 | C 1.84 | T 2.55 | H 2.46 | S 2.95 | F 2.6 | V 2.08 | K 1.74 | R 2.49 | G 1.93 | E 2.34 | L 1.16 | A 1.82 | D 3.63 | N 2.32
L15: E 3.19 | R 2.37 | C 3.47 | G 3.2 | A 3.71 | H 3.73 | P 3.61 | W 2.18 | Y 2.19 | I 2.11 | M 2.47 | N 3.64 | D 4.13 | S 3.53 | T 3.08 | Q 3.52 | K 3.22 | F 2.59 | V 2.91
L20: A 3.71 | E 3.75 | D 3.91 | K 2.81 | F 1.98 | G 2.19 | S 2.92 | Y 2.51 | M 2.47 | I 2.29 | P 3.27 | T 3.54 | W 2.54 | H 2.16 | V 2 | N 3.06 | Q 2.8 | C 2.63
K18: A 2.63 | C 2.51 | E 2.95 | M 2.78 | R 1.02 | W 1.39 | V 3.75 | Y 2.05 | G 2.95 | T 2.11 | L 1.6 | H 1.98 | Q 3.23 | S 3.17 | D 2.77 | F 1.96 | I 1.71 | P 2.83 | N 3.29
S21: C 2.42 | A 2.8 | D 3.56 | H 2.12 | G 1.86 | F 2.28
D17: W 1.72 | E 1.26 | V 2.51 | T 1.68 | I 1.69 | G 2.03 | L 1.93 | K 2.04 | F 2.25 | C 1.3 | Q 2.18 | M 1.57 | R 1.91 | S 1.6 | A 2.65 | Y 1.8 | N 2.39 | H 2.69 | P 2.46
I19: M 3.53 | R 3.32 | H 2.98 | Q 2.12 | Y 2.58 | T 3.4 | L 2.86 | V 3.17 | S 3.16 | E 4 | A 2.57 | N 2.86 | F 2.21 | P 3.8 | D 3.73
